Patent publication US20030148956A1 (PROCTER AND GAMBLE, published 2003)
Ends that are not written are not given here.

T1: CRF2R
T1 sequence (Q13324 whole entry, species assumed, looked up): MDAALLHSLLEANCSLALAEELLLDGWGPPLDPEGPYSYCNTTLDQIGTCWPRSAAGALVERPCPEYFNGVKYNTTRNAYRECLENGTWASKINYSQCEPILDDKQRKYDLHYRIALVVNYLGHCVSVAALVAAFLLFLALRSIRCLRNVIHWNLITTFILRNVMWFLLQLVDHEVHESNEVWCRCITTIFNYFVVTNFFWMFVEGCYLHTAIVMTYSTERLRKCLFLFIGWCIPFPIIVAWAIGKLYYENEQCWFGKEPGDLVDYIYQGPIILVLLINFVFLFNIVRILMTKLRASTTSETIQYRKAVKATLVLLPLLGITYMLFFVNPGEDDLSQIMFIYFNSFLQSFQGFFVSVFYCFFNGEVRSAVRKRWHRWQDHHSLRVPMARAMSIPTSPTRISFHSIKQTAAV


Columns and labels:
CRF2R = molecular target: T1, CRF2R; test: cell-based or functional assay
CRF1R = test: cell-based or functional assay

Row | Binder | CRF2R EC50 (CRF2R) | CRF2R Emax (CRF2R) | CRF1R EC50 (CRF1R) | CRF1R Emax (CRF1R)
1 | DNPSLSIDLPLQLLRTLLELARTQSQRERAEQNAIIFASV-NH2 [SEQ ID NO 176] | 0.0126 µM | 90.2% | 1 µM | 26.9%
2 | SEEPPISLDVPIGLLQEVLEMARAEQLAQQAHSNRKLMEII-NH2 [SEQ ID NO 162] | > 0.1 µM | 7% | > 0.1 µM | 11%
3 | IVLSLDVPIGLLQILLEMTKADQLAQQAHSNRKLLDIA-NH2 [SEQ ID NO 155] | 0.0206 µM | 94% | 0.0406 µM | 16%
4 | DNPSLSIDLPFILLRTLLELARTQSQRERAEQNAIIFASV-NH2 [SEQ ID NO 181] | 0.00522 µM | 97.8% | 0.154 µM | 100%
5 | SQEPPISLDLTFHLLREVLEQARARAAREQATTNARILARV-NH2 [SEQ ID NO 157] | 0.042 µM | 60.6% | 0.1 µM | 91%
6 | IVLSLDVPIGLLQTLLELARTQSQRERAEQNRIIFDSV-NH2 [SEQ ID NO 160] | 0.00915 µM | 87% | > 0.1 µM | 10%
7 | IVLSLDVPIGLLQILLEQARARAAREQATSNRKLMEII-NH2 [SEQ ID NO 163] | 0.00449 µM | 96% | > 0.1 µM | 13%
8 | DNPSLSIDLPFYLLRTLLELARTQSQRERAEQNAIIFASV-NH2 [SEQ ID NO 183] | 0.00793 µM | 100% | 0.415 µM | 57.5%
9 | DNPSLSIDLPLILLRTLLELARTQSQRERAEQNAIIFASV-NH2 [SEQ ID NO 175] | 0.00542 µM | 92.2% | 1 µM | 34.8%
10 | ZGIVLSLDVPIGLLRKMIEIEKQEKEKQQAANNRLLLDTI (C-terminal amide) [SEQ ID NO 153] | 0.00928 µM | 97% | > 0.1 µM | 7%
11 | IVLSLDVPIGLLQILLEMARAEQLAQQAHSNRKLMEII-NH2 [SEQ ID NO 164] | 0.00224 µM | 92% | > 0.1 µM | 26%
12 | SEEPPISLDLTFHLLREVLEMARAEQLAQQAHTNARILARV-NH2 [SEQ ID NO 161] | > 0.1 µM | 88% | > 0.1 µM | 77%
13 | DNPSLSIDLPLYLLRTLLELARTQSQRERAEQNAIIFASV-NH2 [SEQ ID NO 177] | 0.00563 µM | 97.7% | 0.613 µM | 69.2%
14 | SQEIVLSLDVPIGLLREVLEMTKADQLAQQAHSNRKLLDIA-NH2 [SEQ ID NO 152] | > 0.1 µM | 19% | > 0.1 µM | 4%
15 | ZGPPISIDLPTYLLRKMIEIEKQEKEKQQATTNARILARV (C-terminal amide) [SEQ ID NO 151] | 0.0367 µM | 96% | 1 µM | 19.9%
16 | ZGPPISIDVPFQLLRILIEIEKQEKEKQQATTNARILARV (C-terminal amide) [SEQ ID NO 171] | 0.0176 µM | 100% | 0.206 µM | 99%
17 | ZGPPISIDVPTYLLRILIEIEKQEKEKQQATTNARILARV (C-terminal amide) [SEQ ID NO 169] | 0.0178 µM | 93% | 0.978 µM | 26%
18 | ZGPPISIDVPFQLLRKMIEIEKQEKEKQQATTNARILARV (C-terminal amide) [SEQ ID NO 172] | 0.0135 µM | 100% | 1 µM | 68%

Row | Binder | CRF2R EC50 (CRF2R) | CRF2R Emax (CRF2R) | CRF1R EC50 (CRF1R) | CRF1R Emax (CRF1R)
19 | ZGPPISIDVPTYLLRKMIEIEKQEKEKQQATTNARILARV (C-terminal amide) [SEQ ID NO 170] | 0.075 µM | 83% | 1 µM | 9%
20 | IVLSLDVPIGLLQILLEIEKQEKEKQQAANNRLLLDTI-NH2 [SEQ ID NO 158] | 0.00637 µM | 89% | > 0.1 µM | 15%
21 | IVLSLDVPIGLLQILLEQTKADQLAQQAHSNRKLLDIA-NH2 [SEQ ID NO 159] | 0.0908 µM | 62% | > 0.1 µM | 9%
22 | IVLSLDVPIGLLQILIEIEKQEKEKQQAATTNARILARV-NH2 [SEQ ID NO 168] | 0.0049 µM | 75% | 1 µM | 52%
23 | IVLSLDVPIGLLQEVLEMARAEQLAQQAHSNRKLMEII-NH2 [SEQ ID NO 165] | > 0.1 µM | 75% | > 0.1 µM | 19%
24 | DNPSLSIDLPTYLLRTLLELARTQSQRERAEQNAIIFASV-NH2 [SEQ ID NO 173] | 0.1 µM | 65.2% | 1 µM | 6.05%
25 | DNPSLSIDLPLFLLRTLLELARTQSQRERAEQNAIIFASV-NH2 [SEQ ID NO 178] | 0.00517 µM | 96.5% | 1 µM | 55.7%
26 | IVLSLDVPIGLLQILLEQEKQEKEKQQATTNARILARV-NH2 [SEQ ID NO 167] | 0.013 µM | 100% | 1 µM | 15%
27 | DNPSLSIDLPFQLLRTLLELARTQSQRERAEQNAIIFASV-NH2 [SEQ ID NO 182] | 0.00721 µM | 91.4% | 0.409 µM | 89.7%
28 | ZGPPISIDLPFQLLRKMIEIEKQEKEKQQATTNRLLLDTV (C-terminal amide) [SEQ ID NO 16] | 0.00788 µM | 86% | 0.136 µM | 98%
29 | ZGPPISIDLPFQLLRKMIEIEKQEKEKQQATTNRLLLATV (C-terminal amide) [SEQ ID NO 17] | 0.0102 µM | 96% | 0.261 µM | 98%
30 | ZGPPISIDLPFQLLRKMIEIEKQEKEKQQATTNRLLLDRV (C-terminal amide) [SEQ ID NO 18] | 0.00529 µM | 97% | 0.106 µM | 100%
31 | DNPSLSIDLPLLLLRTLLELARTQSQRERAEQNAIIFASV-NH2 [SEQ ID NO 174] | 0.00442 µM | 97.2% | 1 µM | 29.1%
32 | IVLSLDVPIGLLQILIEIEKQEKEKQQAANNRLLLDTI-NH2 [SEQ ID NO 154] | 0.0103 µM | 100% | > 0.1 µM | 7%
33 | IVLSLDVPIGLLQILIEIEKQEKEKQQAANNARILARV-NH2 [SEQ ID NO 166] | 0.0037 µM | 99% | 0.438 µM | 95%
34 | ZGPPISIDLSLELLRKMIEQARARAAREQATTNARILARV (C-terminal amide) [SEQ ID NO 156] | 0.00929 µM | 79% | > 0.1 µM | 6%
35 | DNPSLSIDLPLHLLRTLLELARTQSQRERAEQNAIIFASV-NH2 [SEQ ID NO 179] | 0.0102 µM | 92.5% | 0.477 µM | 78.9%
36 | DNPSLSIDLPFLLLRTLLELARTQSQRERAEQNAIIFASV-NH2 [SEQ ID NO 180] | 0.00314 µM | 95.7% | 0.125 µM | 99.3%
